Test results reported in article PMC11150526, “Pseudomonas aeruginosa gene PA4880 encodes a Dps-like protein with a Dps fold, bacterioferritin-type ferroxidase centers, and endonuclease activity” (Frontiers in Molecular Biosciences, 2024).

Legend:
[1] = biological target: the molecule itself; assay: crystal structure; Pa DpsL-dimer (also called Pa DpsL-monomer); protein purified without MgSO4; crystals from 8% PEG 6,000, 100 mM MES pH 6.0, 100 mM MgCl2; 1.3 A; one molecule in the asymmetric unit, dimer by crystallographic symmetry (PISA)
[2] = biological target: the molecule itself; assay: SEC; calibrated Superdex 200 Increase 10/300 GL; 50 mM Tris pH 7.5, 1 mM MgSO4; also run after titration with Fe2+ (0 h and 24 h), and after MgSO4 was added back to disassembled protein (only partial reassembly)

B1: Pseudomonas aeruginosa Dps-like protein (product of gene PA4880) (natural protein, Pseudomonas aeruginosa PAO1, UniProt Q9HUT3 1-177, looked up)
chain: MTTVQLTDVQTLRDRARKNIQEGAVTEGYSADRQTVLRLLNEALATELVCFLRYKRHYFMATGLKASIAAAEFLEHANQEMQHADQLAERIMQLGGEPDFNPRGLEERSHAEYVEGKTLKDMVTENLIAERIAIDSYREIITYLGNDDPTTRRIFEEILAQEEEHADDMADILDDLA
notes: Product of gene PA4880 of P. aeruginosa PAO1 (annotated as probable bacterioferritin); The gene was synthesised with silent, codon-optimising mutations and cloned NdeI/BamHI into pET11a; The structures number residues from Met1; No tag is mentioned; As isolated it carries di-iron ferroxidase centres (8-10 Fe per 12-mer); also called Pa DpsL; PaDpsL; source: E. coli BL21-Gold (DE3), pET11a, …
**Q.** For B1, which “stoichiometry N” value [1] is on record?
**A.** Its value is 2.

**Q.** What about the “stoichiometry N” value [2] of the same protein?
**A.** Its value is 12.
